Data set [1] addresses type II fusion peptide (pro-apoptotic peptide-linker-ferritin monomer fragment-linker-GFP fusion polypeptide).
Data set [2] addresses sFt-GFP fusion peptide.
The target of data set [3] is KLAK-sFt-GFP fusion peptide (pro-apoptotic peptide-ferritin monomer fragment-linker-GFP fusion polypeptide).
For data set [4], the target named is wFt-GFP fusion peptide.

B1: Recombinant MMP-2 (protein)
chain: YNFFPRKPKWDKNQITYRIIGYTPDLDPETVDDAFARAFQVWSDVTPLRFSRIHDGEADIMINFGRWEHGDGYPFDGKDGLLAHAFAPGTGVGGDSHFDDDELWTLGEGQVVRVKYGNADGEYCKFPFLFNGKEYNSCTDTGRSDGFLWCSTTYNFEKDGKYGFCPHEALFTMGGNAEGQPCKFPFRFQGTSYDSCTTEGRTDGYRWCGTTEDYDRDKKYGFCPETAMSTVGGNSEGAPCVFPFTFLGNKYESCTSAGRSDGKMWCATTANYDDDRKWGFCPDQGYSLFLVAAHEFGHAMGLEHSQDPGALMAPIYTYTKNFRLSQDDIKGIQELYGASPDIDLGTGPTPTLGPVTPEICKQDIVFDGIAQIRGEIFFFKDRFIWRTVTPRDKPMGPLLVATFWPELPEKIDAVYEAPQEEKAVFFAGNEYWIYSASTLERGYPKPLTSLGLPPDVQRVDAAFNWSKNKKTYIFAGDKFWRYNEVKKKMDPGFPKLIADAWNAIPDNLDAVVDLQGGGHSYFFKGAYYLKLENQSLKSVKFGSIKSDWLGC
With B1, the “linker cleavage, SDS-PAGE of products” value in data set [1] was “each linker of type I fusion peptide and type II fusion peptide was cleaved, and products generated by the linker cleavage were observed in a concentration-dependent manner”; in data set [3], “each linker of type I fusion peptide and type II fusion peptide was cleaved, and products generated by the linker cleavage were observed in a concentration-dependent manner”. Besides, the “linker cleavage, SDS-PAGE” value in data set [2] and in data set [4] was “sFt-GFP was more easily cleaved by MMP-2 as compared with wFt-GFP” each time.
